In the supplement of paper PMC10126150:
± gives the standard deviation of the averaged measurements.

Test system: ATP
Experiment: switch fluorescence ratio, 500 uM ATP over buffer (Cy3 cluster intensity, sum of 5 cycles each) (fold (ratio)); higher = stronger signal-on switching upon ATP binding; sequences stand for … in TCGTCGGCAGCGTCAGATGTGTATAAGAGACAGTTTTTTTTTTTTTTTTTTTTTTTTT…TC
Conditions: aptamer strand: ATP DNA aptamer (quencher-CACCTGGGGGAGTATTGCGGAGGAAGG + anchor), 100 nM annealed; ATP concentration: 500 uM
Method in brief: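 Switching-strand clusters labelled with Cy3 on a modified Illumina MiSeq flow-cell were annealed to 100 nM quencher-labelled ATP aptamer, imaged in selection buffer, and re-imaged after 15 min with 500 uM ATP at 22 °C. This was done over five cycles with NaOH stripping and re-annealing in between. The fluorescence ratio is summed target-cycle over summed buffer-cycle Cy3 intensity per cluster, averaged per switch-domain sequence, excluding clusters outside 100-1000 RFU.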
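Also: ATP exposure 15 min at 22 °C before imaging.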

Row | Sequence | switch fluorescence ratio
1 | CCAGTGGCTA | 1.016 ± 0.0033
2 | CCAGTGTCGG | 0.969 ± 0.04
3 | CCAGTTACGG | 1.032 ± 0.01
4 | CCAGTTAGCC | 1.04 ± 0.13
5 | CCAGTTTCGG | 0.983 ± 0.049
6 | CCAGTTTGGA | 0.998 ± 0.017
7 | CCATACGTTG | 1.037 ± 0.0051
8 | CCATACGTTT | 1.02 ± 0.046
9 | CCATATCTAT | 1 ± 0.029
10 | CCATCAGGG | 1.16 ± 0.042
11 | CCATCTGCGC | 1.82 ± 0.074
12 | CCATGCAGGC | 1.28 ± 0.13
13 | CCATGGATCA | 0.9992 ± 0.0091
14 | CCATGGGTAG | 0.974 ± 0.056
15 | CCATGGTAGT | 1.028 ± 0.0029
16 | CCATGGTTAC | 2.67 ± 2.3
17 | CCATGTAAGA | 1.018 ± 0.0091
18 | CCATGTGTTG | 1.03 ± 0.043
19 | CCATGTTGAG | 0.997 ± 0.0086
20 | CCATGTTTGT | 1.01 ± 0.028
21 | CCATTATGGT | 1.01 ± 0.03
22 | CCATTCAGGT | 1.04 ± 0.065
23 | CCATTCATAG | 0.973 ± 0.022
24 | CCATTGAATG | 1.02 ± 0.015
25 | CCATTGATGT | 1.02 ± 0.023
26 | CCATTTGACC | 1.04 ± 0.014

Row | Sequence | switch fluorescence ratio
27 | CCATTTGTT | 1.04 ± 0.035
28 | CCATTTTTGG | 0.992 ± 0.011
29 | CCCAATAGTG | 1.35 ± 0.042
30 | CCCACTACAT | 1.06 ± 0.035
31 | CCCAGGCCCG | 1.058 ± 0.0088
32 | CCCATCTTTT | 1 ± 0.0025
33 | CCCATGCAAG | 1.3 ± 0.32
34 | CCCATGCCCG | 1.04 ± 0.021
35 | CCCATGTTTC | 1.02 ± 0.023
36 | CCCCGAGGAT | 1.14 ± 0.022
37 | CCCCTTGTTC | 1.01 ± 0.02
38 | CCCGAAGTCT | 1.05 ± 0.012
39 | CCCGAGCCTC | 1.36 ± 0.1
40 | CCCGAGTTAT | 1.067 ± 0.01
41 | CCCGATGCGC | 1.42 ± 0.51
42 | CCCGGAAGTG | 1.24 ± 0.018
43 | CCCGGCGAT | 1.85 ± 1.2
44 | CCCGGGAAAA | 0.943 ± 0.03
45 | CCCGGGGGGA | 1.55 ± 0.7
46 | CCCGGGGTGT | 3.55 ± 0.15
47 | CCCGTAGTTA | 1.19 ± 0.042
48 | CCCGTGGGGA | 1.2 ± 0.15
49 | CCCGTTGGTT | 1.27 ± 0.34
50 | CCCGTTTGGG | 0.981 ± 0.023
51 | CCCTAACCCG | 1.18 ± 0.055
52 | CCCTAGGTTT | 1.73 ± 0.79

Row | Sequence | switch fluorescence ratio
53 | CCCTCACTTA | 1.08 ± 0.049
54 | CCCTGGGGGT | 1.15 ± 0.067
55 | CCCTGGTGGG | 1.04 ± 0.11
56 | CCCTTAGTGC | 1.14 ± 0.022
57 | CCCTTAGTGT | 1.04 ± 0.031
58 | CCCTTTATTT | 1.29 ± 0.36
59 | CCCTTTTTAT | 0.986 ± 0.014
60 | CCGAAAATGA | 1.35 ± 0.49
61 | CCGAAGACAG | 3.11 ± 0.21
62 | CCGAAGGGGT | 1.18 ± 0.16
63 | CCGAAGGGTT | 1.02 ± 0.077
64 | CCGAGAGGGT | 1.06 ± 0.069
65 | CCGAGGGTG | 1.81 ± 0.098
66 | CCGAGGTATC | 3.23 ± 2.1
67 | CCGAGTGGGC | 1.09 ± 0.012
68 | CCGATACGGG | 1.072 ± 0.0082
69 | CCGATGATTT | 1.5 ± 0.56
70 | CCGATTTGGC | 1.14 ± 0.044
71 | CCGCATGCTT | 2.76 ± 2
72 | CCGCCGGGGG | 1.09 ± 0.041
73 | CCGCGAGGGT | 1.57 ± 0.29
74 | CCGCGGGATT | 1.28 ± 0.32
75 | CCGCGGGGAG | 1.1 ± 0.041
76 | CCGCTAGCCT | 2.94 ± 0.53
77 | CCGCTTAGAT | 2.34 ± 0.23
78 | CCGGAAATGA | 1.02 ± 0.054

Row | Sequence | switch fluorescence ratio
79 | CCGGACTCTT | 1.11 ± 0.015
80 | CCGGAGGGGA | 1.27 ± 0.18
81 | CCGGATAGTG | 1.03 ± 0.026
82 | CCGGCAGGAT | 0.988 ± 0.011
83 | CCGGGACAGC | 1.17 ± 0.077
84 | CCGGGAGCGC | 1.98 ± 0.83
85 | CCGGGGAATC | 2.19 ± 0.57
86 | CCGGGGACCC | 1.13 ± 0.08
87 | CCGGGGATCA | 1.01 ± 0.024
88 | CCGGGGGACG | 1.06 ± 0.14
89 | CCGGGGGGAT | 1.55 ± 0.66
90 | CCGGGGGGTA | 1.37 ± 0.017
91 | CCGGGGGT | 1.036 ± 0.0046
92 | CCGGGGGTCC | 1.02 ± 0.019
93 | CCGGGGGTCG | 1.06 ± 0.074
94 | CCGGGGGTTA | 1.14 ± 0.23
95 | CCGGGGTGGC | 1.16 ± 0.11
96 | CCGGGGTTGA | 0.993 ± 0.074
97 | CCGGGGTTTG | 0.998 ± 0.019
98 | CCGGGTAAGG | 0.9989 ± 0.0045
99 | CCGGGTAGTT | 1.02 ± 0.074
100 | CCGGGTGACA | 1.25 ± 0.048
101 | CCGGGTTACT | 1.91 ± 0.044
102 | CCGGGTTGCA | 1.03 ± 0.04
103 | CCGGGTTTAG | 1.03 ± 0.023
104 | CCGGGTTTGT | 1.05 ± 0.03

Row | Sequence | switch fluorescence ratio
105 | CCGGTACGTC | 1.12 ± 0.044
106 | CCGGTACTAT | 1.167 ± 0.0092
107 | CCGGTATAAT | 1.144 ± 0.0026
108 | CCGGTATATC | 2.517 ± 0.025
109 | CCGGTTAAAC | 1.64 ± 0.06
110 | CCGGTTAGAG | 1.05 ± 0.014
111 | CCGGTTGGTG | 1 ± 0.036
112 | CCGGTTTTCG | 1.09 ± 0.036
113 | CCGGTTTTGC | 1.21 ± 0.14
114 | CCGTAGAGGG | 1.38 ± 0.043
115 | CCGTAGGAAT | 1.28 ± 0.068
116 | CCGTAGGTTT | 1.06 ± 0.037
117 | CCGTCAAGGA | 1.94 ± 1.2
118 | CCGTCGGCGC | 1.08 ± 0.019
119 | CCGTCGTACG | 1.06 ± 0.11
120 | CCGTCTGGCG | 0.9959 ± 0.0067
121 | CCGTGACAAT | 4.12 ± 0.34
122 | CCGTGAGGTA | 1 ± 0.026
123 | CCGTGCGTAT | 1.3 ± 0.062
124 | CCGTGGGGGG | 1.02 ± 0.083
125 | CCGTTCTGGG | 0.9786 ± 0.0026
126 | CCGTTGAATT | 1.008 ± 0.0056
127 | CCGTTGACCG | 1.07 ± 0.057
128 | CCGTTGGACT | 1.24 ± 0.067
129 | CCGTTGGGCT | 1.01 ± 0.025
130 | CCGTTGGGGC | 1.12 ± 0.059

Row | Sequence | switch fluorescence ratio
131 | CCGTTGTATT | 1.12 ± 0.035
132 | CCGTTTATGA | 1.1 ± 0.047
133 | CCGTTTGAAA | 1.01 ± 0.006
134 | CCGTTTTGAA | 0.981 ± 0.057
135 | CCGTTTTTGC | 1.14 ± 0.09
136 | CCTAAAAGGG | 1 ± 0.032
137 | CCTAACCGTC | 1.156 ± 0.0056
138 | CCTAACGCAG | 2.32 ± 0.43
139 | CCTAATTTTA | 0.971 ± 0.043
140 | CCTACGGAAG | 2.07 ± 0.045
141 | CCTAGCAAGT | 3.19 ± 0.92
142 | CCTAGCCTGC | 1.16 ± 0.054
143 | CCTAGCGGTT | 1.1459 ± 0.00038
144 | CCTAGGGAGC | 1.07 ± 0.1
145 | CCTAGGGGGC | 1.24 ± 0.29
146 | CCTAGGGGGG | 1.17 ± 0.23
147 | CCTAGTCGGC | 1.0715 ± 0.00095
148 | CCTAGTGTTC | 0.9801 ± 0.0083
149 | CCTAGTTCGG | 0.997 ± 0.027
150 | CCTATAGAGT | 0.964 ± 0.02
151 | CCTATATTAA | 0.9853 ± 0.0066
152 | CCTATGGTTG | 0.997 ± 0.033
153 | CCTATTACTT | 1 ± 0.034
